From doi:10.1101/2022.04.29.490036

Target: S. lophii 70 S ribosome (Spraguea lophii (endogenous in spores))
Experiment: cryo-EM structure

S. lophii 70 S ribosome (complex) gave a percent of particles in the monomeric class of 1.6% and a stoichiometry N of 2.
